Experimental data from patent publication US20150344570A1 (published 2015).

T1: FcγRIIb extracellular domain with C-terminal His tag (human, UniProt P31994 43-217)
T1 construct: extracellular domain; Soluble receptor expressed in FreeStyle293 cells, used as analyte in Biacore; also called FcgRIIb; 2b; not shown: His tag attached to the C terminus
T1 sequence (looked up): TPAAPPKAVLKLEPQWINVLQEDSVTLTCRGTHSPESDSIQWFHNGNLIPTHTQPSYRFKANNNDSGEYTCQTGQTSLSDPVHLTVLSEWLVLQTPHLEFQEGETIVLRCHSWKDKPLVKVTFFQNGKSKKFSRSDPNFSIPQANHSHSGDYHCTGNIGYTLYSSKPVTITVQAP

B1: GpH7-B3 variant S239_10E/GpL16-k0 (Ho Ab) (antibody, human IgG1, kappa)
heavy: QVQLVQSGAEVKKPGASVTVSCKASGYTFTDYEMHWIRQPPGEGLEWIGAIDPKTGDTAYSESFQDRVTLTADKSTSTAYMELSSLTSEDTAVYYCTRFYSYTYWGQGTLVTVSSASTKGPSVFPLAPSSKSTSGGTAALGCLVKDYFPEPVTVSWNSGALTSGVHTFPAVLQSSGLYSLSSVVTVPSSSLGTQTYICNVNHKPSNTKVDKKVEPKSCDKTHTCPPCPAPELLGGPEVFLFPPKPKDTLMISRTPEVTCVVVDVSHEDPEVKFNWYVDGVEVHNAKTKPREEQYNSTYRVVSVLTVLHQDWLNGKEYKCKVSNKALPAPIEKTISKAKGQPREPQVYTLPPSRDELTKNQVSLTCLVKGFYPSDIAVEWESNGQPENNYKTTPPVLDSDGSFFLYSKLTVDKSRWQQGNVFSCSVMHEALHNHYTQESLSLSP
light: DIVMTQSPLSLPVTPGEPASISCQASESLVHSNRNTYLHWYLQKPGQSPQLLIYKVSNRFSGVPDRFSGSGSGTDFTLKISRVEAEDVGVYYCSQNTHVPPTFGQGTKVEIERTVAAPSVFIFPPSDEQLKSGTASVVCLLNNFYPREAKVQWKVDNALQSGNSQESVTEQDSKDSTYSLSSTLTLSKADYEKHKVYACEVTHQGLSSPVTKSFNRGEC
notes: Homodimerized anti-glypican-3 antibody; the alteration stands in both H chains (GpH7-B3 = GpH7-G1d with K439E)
B2: GpH7-B3 variant S324_20W/GpL16-k0 (Ho Ab) (antibody, human IgG1, kappa)
heavy: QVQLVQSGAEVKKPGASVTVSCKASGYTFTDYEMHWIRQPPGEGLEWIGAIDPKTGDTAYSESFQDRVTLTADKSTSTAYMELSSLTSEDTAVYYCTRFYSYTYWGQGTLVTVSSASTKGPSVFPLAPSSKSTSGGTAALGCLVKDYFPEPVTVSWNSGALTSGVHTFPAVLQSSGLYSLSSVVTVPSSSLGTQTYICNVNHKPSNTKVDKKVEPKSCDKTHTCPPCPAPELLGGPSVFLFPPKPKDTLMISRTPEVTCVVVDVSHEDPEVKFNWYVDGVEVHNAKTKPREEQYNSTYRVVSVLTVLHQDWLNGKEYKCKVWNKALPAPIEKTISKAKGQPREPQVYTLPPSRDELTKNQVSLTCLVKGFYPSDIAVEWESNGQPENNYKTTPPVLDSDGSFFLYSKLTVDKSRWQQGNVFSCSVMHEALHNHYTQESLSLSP
light: B1 light
notes: Homodimerized anti-glypican-3 antibody; the alteration stands in both H chains
B3: GpH7-A5/GpH7-B3 variant S267_19Q/GpL16-k0 (antibody, human IgG1, kappa)
heavy 1: not shown
heavy 2: not shown
light: B1 light
notes: Heterodimerized antibody (He Ab) with the mutation in only one H chain; also called He Ab S267Q
B4: GpH7-A5/GpH7-B3 variant S267_16H/GpL16-k0 (antibody, human IgG1, kappa)
heavy 1: not shown
heavy 2: not shown
light: B1 light
notes: Heterodimerized antibody (He Ab) with the mutation in only one H chain; also called He Ab S267H
B5: GpH7-A5/GpH7-B3 variant S267_20W/GpL16-k0 (antibody, human IgG1, kappa)
heavy 1: not shown
heavy 2: not shown
light: B1 light
notes: Heterodimerized antibody (He Ab) with the mutation in only one H chain; also called He Ab S267W
B6: GpH7-A5/GpH7-B3 variant S324_01G/GpL16-k0 (He Ab) (antibody, human IgG1, kappa)
heavy 1: not shown
heavy 2: not shown
light: B1 light
notes: Heterodimerized anti-glypican-3 antibody; the alteration stands only in the GpH7-B3 chain
B7: GpH7-A5/GpH7-B3 variant S324_20W/GpL16-k0 (He Ab) (antibody, human IgG1, kappa)
heavy 1: not shown
heavy 2: not shown
light: B1 light
notes: as for B6
B8: GpH7-A5/GpH7-B3 variant T335_09D/GpL16-k0 (He Ab) (antibody, human IgG1, kappa)
heavy 1: not shown
heavy 2: not shown
light: B1 light
notes: as for B6
B9: GpH7-A5/GpH7-B3 variant T335_08L/GpL16-k0 (He Ab) (antibody, human IgG1, kappa)
heavy 1: not shown
heavy 2: not shown
light: B1 light
notes: as for B6
B10: GpH7-A5/GpH7-B3 variant S239_18N/GpL16-k0 (He Ab) (antibody, human IgG1, kappa)
heavy 1: not shown
heavy 2: not shown
light: B1 light
notes: as for B6
B11: GpH7-A5/GpH7-B3 variant T335_05P/GpL16-k0 (He Ab) (antibody, human IgG1, kappa)
heavy 1: not shown
heavy 2: not shown
light: B1 light
notes: as for B6
B12: GpH7-A5/GpH7-B3 variant T335_06M/GpL16-k0 (He Ab) (antibody, human IgG1, kappa)
heavy 1: not shown
heavy 2: not shown
light: B1 light
notes: as for B6
B13: GpH7-A5/GpH7-B3 variant Y296_20W/GpL16-k0 (He Ab) (antibody, human IgG1, kappa)
heavy 1: not shown
heavy 2: not shown
light: B1 light
notes: as for B6
B14: GpH7-A5/GpH7-B3 variant Y300_08L/GpL16-k0 (He Ab) (antibody, human IgG1, kappa)
heavy 1: not shown
heavy 2: not shown
light: B1 light
notes: as for B6
B15: GpH7-A5/GpH7-B3 variant S324_14T/GpL16-k0 (He Ab) (antibody, human IgG1, kappa)
heavy 1: not shown
heavy 2: not shown
light: B1 light
notes: as for B6
B16: GpH7-A5/GpH7-B3 variant S239_10E/GpL16-k0 (He Ab) (antibody, human IgG1, kappa)
heavy 1: not shown
heavy 2: not shown
light: B1 light
notes: as for B6
B17: GpH7-A5/GpH7-B3 variant S337_16H/GpL16-k0 (He Ab) (antibody, human IgG1, kappa)
heavy 1: not shown
heavy 2: not shown
light: B1 light
notes: as for B6
B18: GpH7-A5/GpH7-B3 variant S337_01G/GpL16-k0 (He Ab) (antibody, human IgG1, kappa)
heavy 1: not shown
heavy 2: not shown
light: B1 light
notes: as for B6
B19: GpH7-A5/GpH7-B3 variant S324_06M/GpL16-k0 (He Ab) (antibody, human IgG1, kappa)
heavy 1: not shown
heavy 2: not shown
light: B1 light
notes: as for B6
B20: GpH7-A5/GpH7-B3 variant S324_09D/GpL16-k0 (He Ab) (antibody, human IgG1, kappa)
heavy 1: not shown
heavy 2: not shown
light: B1 light
notes: as for B6
B21: GpH7-A5/GpH7-B3 variant S298_03V/GpL16-k0 (He Ab) (antibody, human IgG1, kappa)
heavy 1: not shown
heavy 2: not shown
light: B1 light
notes: as for B6

target: T2, FcγRIIIa (human, UniProt P08637 17-208); assay: SPR (Biacore), antibody captured on antigen-peptide chip, FcγR as analyte; binding of Ho Ab / binding of HoCon Ab GpH7-B3/GpL16-k0 x 100
T2 construct: extracellular domain; also called 3a; FcgRIIIa
Method: (§1) Analysis of interaction between objective antibody and the FcγR was carried out using Biacore T100 (GE Healthcare). HBS-EP+ (GE Healthcare) was used as the running buffer, and the measurement temperature was set to 25° C. Chips produced by immobilizing the antigen peptide by the amine coupling method to a Series S Sencor Chip CM5 (GE Healthcare), or alternatively, chips produced by allowing preliminarily biotinylated antigen peptides to interact with and immobilize onto a Series S Sensor Chip SA (certified) (GE Healthcare) were used. Antibodies of interest were captured onto an antigen peptide-immobilized chip, and allowed to interact to each FcγR diluted with running buffer. To regenerate and repeatedly use the chip, the antibodies captured on the chip were washed off by reacting 10 mM glycine-HCl, pH 1.5.

T2 sequence (P08637 17-208): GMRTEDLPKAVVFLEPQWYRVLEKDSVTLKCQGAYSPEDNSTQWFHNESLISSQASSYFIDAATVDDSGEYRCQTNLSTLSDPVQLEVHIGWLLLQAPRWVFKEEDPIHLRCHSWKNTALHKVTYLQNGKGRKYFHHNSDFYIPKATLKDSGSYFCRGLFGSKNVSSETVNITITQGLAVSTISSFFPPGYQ

| Ho/Con_3a | Binder |
| --- | --- |
| 252 relative to control = 100 | B1 |
| 102 relative to control = 100 | B2 |

target: T3, FcγRIIIa extracellular domain with C-terminal His tag (human, UniProt P08637 17-208); assay: SPR (Biacore); He/Con_3a (FcγRIIIa) divided by He/Con_2b (FcγRIIb)
T3 construct: extracellular domain; also called FcgRIIIa; 3a; not shown: His tag attached to the C terminus
T3 sequence (P08637 17-208): as above

| He_3a/2b (IIIa/IIb) [ratio] | Binder |
| --- | --- |
| 0.3 | B3 |
| 0.27 | B4 |
| 0.37 | B5 |

target: T3, FcγRIIIa extracellular domain with …; assay: SPR (Biacore T100), antibody captured on antigen peptide chip, FcγR as analyte
Method: as §1

| He/Con_3a | Binder |
| --- | --- |
| 65 relative binding, GpH7-A5/GpH7-B3/GpL16-k0 = 100 | B3 |
| 17.9 relative binding, GpH7-A5/GpH7-B3/GpL16-k0 = 100 | B4 |
| 21.5 relative binding, GpH7-A5/GpH7-B3/GpL16-k0 = 100 | B5 |

target: T1, FcγRIIb extracellular domain with …; assay: as above
Method: as §1

| He/Con_2b | Binder |
| --- | --- |
| 218 relative binding, GpH7-A5/GpH7-B3/GpL16-k0 = 100 | B3 |
| 65.9 relative binding, GpH7-A5/GpH7-B3/GpL16-k0 = 100 | B4 |
| 57.2 relative binding, GpH7-A5/GpH7-B3/GpL16-k0 = 100 | B5 |

target: T2, FcγRIIIa; assay: SPR (Biacore), antibody captured on antigen-peptide chip, FcγR as analyte; binding of He Ab / binding of HeCon Ab GpH7-A5/GpH7-B3/GpL16-k0 x 100

| He/Con_3a | Binder |
| --- | --- |
| 105 relative to control = 100 | B6 |
| 102 relative to control = 100 | B7 |
| 108 relative to control = 100 | B8 |
| 102 relative to control = 100 | B9 |
| 110 relative to control = 100 | B10 |
| 105 relative to control = 100 | B11 |
| 102 relative to control = 100 | B12 |
| 135 relative to control = 100 | B13 |
| 105 relative to control = 100 | B14 |
| 103 relative to control = 100 | B15 |
| 181 relative to control = 100 | B16 |
| 108 relative to control = 100 | B17 |
| 102 relative to control = 100 | B18 |
| 113 relative to control = 100 | B19 |
| 101 relative to control = 100 | B20 |
| 109 relative to control = 100 | B21 |
